The subject of the data set is USP48 (isoform 1). Briefly: EMSA. As to conditions: 50 nM NCP, estimated from first distinct shift, higher species above 4 uM, EMSA: 50 nM NCP, native gel, SPR: immobilized nucleosomes, 10 successive USP48 injections, one-phase binding fit, binding buffer, pH and temperature not in ….

Consider “NCP H2A-BRCA1ub (multi-monoubiquitinated, Widom 601, 147 bp)”, for which, for the setting “histone H2A multi-monoubiquitinated at the C-terminal BRCA1 site (K125/K127/K129), DNA unmodified”, the Kd is 1 µM. Regarding NCP unmodified (Widom 601, 147 bp), the Kd is 1 µM.

The Kd is a measure of binding affinity in units of concentration.
